Assay results taken from publication PMC5307791, “Thermus thermophilus as source of thermozymes for biotechnological applications: homologous expression and biochemical characterization of an α-galactosidase” (Microbial Cell Factories, 2017).

What was measured:
[1] = target: α-galactosidase from Thermus thermophilus HB27 (TtGalA), N-terminally His-tagged, expressed in T. thermophilus HB27::nar (Thermus thermophilus HB27); test: SEC-MALS; size-exclusion chromatography (S200 16/60) with Mini DAWN Treos triple-angle light scattering and QELS; 500 µg of protein (1 mg/ml) loaded; 0.5 ml/min; buffer A (50 mM Tris-HCl pH 7.5, 500 mM NaCl)
purified protein = substrate: O=[N+]([O-])c1ccc(O[C@H]2O[C@H](CO)[C@H](O)[C@H](O)[C@H]2O)cc1; test: purified protein; conditions: 90 °C, pH 6.0, 50 mM sodium phosphate

α-galactosidase from Thermus thermophilus HB27 (TtGalA), N-terminally His-tagged, expressed in T. thermophilus HB27::nar (enzyme)
stoichiometry N [1]: 6

B1: TtGalA (Thermus thermophilus HB27) (protein)
chain: MRLNLGGAEVFLRAEGLEEAPGGVRLWGREVRVFPPFPAKGFFRHGWQSWSLAAWVDPAQAPTPLLPEARRPQADDPFLLEAGAWWGSGVGALRGPDGRALLLGALDLGARVLGREDLLLGRYAGEGGAWFLAHGPEEEVFAAYAQLLPRRLSGRPPRVWCSWYSFYTRIGEDLLLRVLDEVAAFSFEVFQIDDGWQRALGDWEPNDRFPRGMAFLAERIRERGLRPGLWFAPFLVTADSPLFQMRPDWVLRDGEGRPVRAGFNWGRPLYALDAGNEEVVEWAADLVRKALAWGYDYLKLDFLYAAALPGAEGEARYRRAMARLREAAGEAYLLFCGAPVLASLGLADGLRVGPDVAPYWDNEERSFWLADPTGPGLRNALRSTLHRLWLMENVHVDPDVVYFRTRFNLLSPEEMRLQEALAHFTGFKATSDPPSWLLPEEKGRLEAFLAREVPVRRLGPYRFRVGEEEVDYAPLL
Km (purified protein): 690 ± 17 µM | Vmax (purified protein): 338 µmol/min/mg | kcat (purified protein): 710 s⁻¹
